Publication PMC8109789, “Phe-Gly motifs drive fibrillization of TDP-43’s prion-like domain condensates” (PLoS Biology, 2021)

B1: TDP-43 prion-like domain, TDP-43(267–414) (domain or fragment, UniProt Q13148 267-414, looked up)
chain: NRQLERSGRFGGNPGGFGNQGGFGNSRGGGAGLGNNQGSNMGGGMNFGAFSINPAMMAAAQAALQSSWGMMGMLASQQNQSGPSGNNQNQGNMQREPNQAFGSGNNSYSGSNSGAAIGWGSASNAGSGSGFNGGFGSSMDSKSSGWGM
notes: Uniformly 15N or 15N/13C labelled for NMR; Fibril seeds of this molecule (from the SSNMR rotor) are the target in the cross-seeding assay; also called TDP-43 PrLD; PrLD of TDP-43; source: E. coli BL21 Star (DE3), inclusion bodies, purified (Ni-NTA in 8 M urea, PD-10 desalting at pH 4)

How the values were obtained:
[1] = molecular target: the molecule itself; test: solution NMR, 1H-15N HSQC peak intensities over time; 55 and 110 μM TDP-43 PrLD, pH 4.0, 298 K, 1 mM CD3COOD in 85/15 H2O/D2O, no salt or RNA; first spectrum within 1 hour, second after approximately 20 hours; self-association into aggregates and droplets
[2] = molecular target: B1; test: cross-seeding followed by ThT fluorescence; 5 μM of each protein variant in 1 mM CD3COOD with 40 μM ThT, 2% (0.12 μM) seeds of the wild-type fibrils studied by SSNMR, 25°C, excitation 450 nm, emission 480 nm; conditions: both partners purified

**Q.** Does B1 bind [1]?
**A.** binds

B2: TDP-43 PrLD variant F313A+F316A (domain or fragment, UniProt Q13148 267-414, looked up)
chain: NRQLERSGRFGGNPGGFGNQGGFGNSRGGGAGLGNNQGSNMGGGMNAGAASINPAMMAAAQAALQSSWGMMGMLASQQNQSGPSGNNQNQGNMQREPNQAFGSGNNSYSGSNSGAAIGWGSASNAGSGSGFNGGFGSSMDSKSSGWGM
notes: TDP-43 prion-like domain, residues 267-414, with the 2 central Phe residues changed to Ala; The text prints the variant once as F312A+F316A and otherwise as F313A+F316A; also called double mutant; F312A+F316A (as printed once); source: desalted from the 8 M urea-containing solution with a PD-10 column
**Q.** Does B2 bind [2]?
**A.** binds
